Values of other authors as cited in paper PMC8448686.
pKd: −log10 of the molar value.

Tests used:
CD20 (Homo sapiens) = CD20 (Homo sapiens) (UniProt P11836); experiment: LigandTracer
HER2 (Homo sapiens) = HER2 (Homo sapiens) (UniProt P04626); experiment: LigandTracer

UniProt P11836, sequence (P11836 whole entry): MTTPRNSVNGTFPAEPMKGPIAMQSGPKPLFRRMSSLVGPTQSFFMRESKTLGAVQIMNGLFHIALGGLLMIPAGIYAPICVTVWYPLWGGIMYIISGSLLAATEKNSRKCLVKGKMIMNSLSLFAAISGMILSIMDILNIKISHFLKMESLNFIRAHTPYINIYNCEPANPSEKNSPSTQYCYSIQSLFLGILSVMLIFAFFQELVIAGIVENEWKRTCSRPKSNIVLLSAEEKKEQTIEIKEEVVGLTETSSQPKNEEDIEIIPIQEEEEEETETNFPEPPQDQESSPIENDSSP

| pKd (HER2 (Homo sapiens)) | Substance | pKd (CD20 (Homo sapiens)) |
| --- | --- | --- |
|  | Rituximab | 9.03 |
| 9.89 | Pertuzumab |  |
